{
  "source": "paper PMC9798254",
  "tested_on": "N[C@H](COP(=O)(O)O)Cc1c[nH]cn1",
  "assay": "purified protein",
  "conditions": "100 mM Tris/HCl pH 7.8, 5 mM MgCl2, 25°C",
  "data": [
    {"substance": "ecHisB‐N (Escherichia coli K-12)", "values": [
      {"measurement": "Km", "value": "48 ± 3", "unit": "µM"},
      {"measurement": "kcat", "value": "2.8 ± 0.1", "unit": "s⁻¹"},
      {"measurement": "kcat/Km", "value": 58000, "unit": "M⁻¹ s⁻¹"}
    ]}
  ]
}
